The target of this assay is Rgps of P. gingivalis HG66 (all gingipain activity released in soluble, non-glycosylated form into media).

B1: PD_(RgpB), recombinant N-terminal prodomain of RgpB, P95493 25-229 (domain or fragment)
chain: GPLGSQPAERGRNPQVRLLSAEQSMSKVQFRMDNLQFTGVQTSKGVAQVPTFTEGVNISEKGTPILPILSRSLAVSETRAMKVEVVSSKFIEKKDVLIAPSKGVISRAENPDQIPYVYGQSYNEDKFFPGEIATLSDPFILRDVRGQVVNFAPLQYNPVTKTLRIYTEIVVAVSETAEAGQNTISLVKNSTFTGFEDIYKSVFMNYEATR
Turning to B1, the IC50 of inhibition of Rgp activity (L-BAPNA): HG66 (cell-free culture medium) was 12 nM and the IC50 of inhibition of Rgp activity (L-BAPNA): HG66 (whole culture) was determined as 116 nM.
